Tests used:
[1] = biological target: T1, Rbfox RRM (109-208) (Homo sapiens, UniProt Q9NWB1 109-208); test: NMR
T1 sequence: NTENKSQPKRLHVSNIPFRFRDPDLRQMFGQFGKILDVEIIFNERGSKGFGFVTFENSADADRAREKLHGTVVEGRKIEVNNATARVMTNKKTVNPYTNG

[2] = biological target: T2, Rbfox1 RRM (109-225) (Homo sapiens, UniProt Q9NWB1 109-225); test: NMR
T2 sequence: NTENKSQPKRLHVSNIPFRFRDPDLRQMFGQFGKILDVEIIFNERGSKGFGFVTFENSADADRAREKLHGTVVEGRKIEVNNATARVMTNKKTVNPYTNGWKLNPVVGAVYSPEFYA

[3] = biological target: T1, Rbfox RRM (109-208); test: EMSA

B1: pre-miR-20b 46-nt (G7-C52) (structured_RNA)
RNA: GCUCAUAGUGCAGGUAGUUUUGGCAUGACUCUACUGUAGUAUGGGC
B1: binds [1].

B2: pre-miR-20b 46-nt, 4-thio-U43 spin-labeled (structured_RNA)
RNA: GCUCAUAGUGCAGGUAGUUUUGGCAUGACUCUACUGUAGUAUGGGC
modifications: 4-thiouridine at U43 carrying spin label
B2: binds [2].

B3: pre-miR-20b full-length (structured_RNA)
RNA: AGUACCAAAGUGCUCAUAGUGCAGGUAGUUUUGGCAUGACUCUACUGUAGUAUGGGCACUUCCAGUACU
With B3 the Kd [3] was roughly 0.05 µM.

Source: publication PMC4872098
